Laboratory results from patent publication US7348140B1, “Clinical indications for genotyping polymorphic variants of G-protein coupled receptors” (Acadia Pharmaceuticals, Inc., priority 2001, dated 2008).

Legend:
[1] = biological target: Cholecystokinin B receptor, wild type (Leucine 224) (UniProt P32239); assay: cell-based or functional assay
[2] = biological target: Cholecystokinin B receptor L224Q variant (Glutamine 224) (UniProt P32239); assay: cell-based or functional assay
Sequence of Cholecystokinin B receptor L224Q variant (Glutamine 224) (P32239 whole entry L224Q): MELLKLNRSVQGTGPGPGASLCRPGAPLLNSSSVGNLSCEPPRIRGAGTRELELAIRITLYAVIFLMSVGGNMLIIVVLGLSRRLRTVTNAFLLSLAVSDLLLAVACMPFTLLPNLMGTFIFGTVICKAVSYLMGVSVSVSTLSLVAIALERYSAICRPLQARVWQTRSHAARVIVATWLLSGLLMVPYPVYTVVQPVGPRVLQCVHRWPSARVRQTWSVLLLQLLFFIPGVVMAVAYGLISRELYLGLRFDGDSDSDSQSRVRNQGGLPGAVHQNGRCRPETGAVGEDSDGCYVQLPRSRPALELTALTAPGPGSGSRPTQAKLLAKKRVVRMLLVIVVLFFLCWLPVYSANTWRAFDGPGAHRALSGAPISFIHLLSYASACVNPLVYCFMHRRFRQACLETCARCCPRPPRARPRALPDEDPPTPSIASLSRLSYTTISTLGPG

Sequence of Cholecystokinin B receptor, wild type (Leucine 224) (P32239 whole entry): as the sequence (P32239 whole entry L224Q) above, with Q224L counted along it

Gastrin (from UniProt P01350 76-92) (peptide)
Ave -Log EC50, R-SAT functional potency [1]: 8.71 -log EC50
Ave -Log EC50, R-SAT functional potency [2]: 9.78 -log EC50
FOLD (shift in functional potency against wild type; negative = gain of function) [2]: -11.7 fold
